According to patent US20120122991A1, “METHOD FOR TREATING CANCER BY INCREASING AMP-ACTIVATED KINASE ACTIVITY” (Dana-Farber Cancer Institute, Inc., priority 2003, published 2012):

Target: T1, MBP-AMPK (Rattus norvegicus, UniProt P54645)
T1 construct: MBP-AMPKa (1-312) bacterial fusion protein
Experiment: AMPK kinase activity on SAMS peptide after in vitro phosphorylation by LKB1
Format: biochemical
Details: in vitro phosphorylation of bacterial MBP-AMPK, SAMS peptide substrate
Protocol: FIG. 2a: Lineup of known LKB1 in vitro phosphorylation sites with sites of phosphorylation in human […] and its yeast homologue SNF1p. AMPKα1 Thr 172 (SEQ ID NO:1); SNF1p S.c. Thr 210 (SEQ ID NO:2); STRAD Thr 329 (SEQ ID NO:3); STRAD Thr 419 (SEQ ID NO:4); LKB1 auto Thr 185 (SEQ ID NO:5). FIG. 2b. HT1080 cells were transfected with wild-type or kinase dead (K78I) LKB1 with or without its coactivating protein STRAD. As indicated, LKB1 immunoprecipitations (IPs) were tested for their ability to transphosphorylate bacterial MBP-AMPKα in an in vitro kinase assay. Parallel in vitro kinase assays were performed using ^32P γ-ATP followed by autoradiography or cold ATP followed by immunoblotting for phospho-Thr172 AMPK and the indicated proteins. Wild-type LKB1 IPs were run in duplicate as shown. MBP-AMPK was also tested alone as indicated. Results are typical of 3 separate experiments. FIG. 2c: LKB1 phosphorylation of MBP-AMPK activates its kinase activity towards a peptide substrate (SAMS). LKB1 immunoprecipitates (as in FIG. 2a) were used to phosphorylate MBP-AMPK in vitro and then MBP-AMPK was removed and tested for its ability to trans-phosphorylate the SAMS peptide in the presence of ^32P γ-ATP. Results were performed in two separate experiments in triplicate. LKB1 alone was incapable of detectably phosphorylating the SAMS peptide, and equivalent levels of LKB1 and MBP-AMPK were used in each reaction (data not shown). Samples without LKB1, without SAMS peptide, or without MBP-AMPK all gave similar levels of background (data not shown).
Kinase Assays and Cellular Analysis: AMPK kinase activity was measured using the SAMS peptide as previously described (7). LKB1 phosphorylation of AMPK was carried out in kinase buffer (50 mM Tris pH 7.5, 10 mM MgCl2, 1 mM DTT, 100 μM ATP) for 20 mins at 30° C. For immunopreciptations of active LKB1 kinase, Flag-tagged LKB1 was co-transfected with an equimolar amount of STRAD expression plasmid into HT1080 cells and immunoprecipitated using M2-agarose (Sigma) 24 h post-transfection in NP40 lysis buffer26. […]

T1 sequence (P54645 13-323): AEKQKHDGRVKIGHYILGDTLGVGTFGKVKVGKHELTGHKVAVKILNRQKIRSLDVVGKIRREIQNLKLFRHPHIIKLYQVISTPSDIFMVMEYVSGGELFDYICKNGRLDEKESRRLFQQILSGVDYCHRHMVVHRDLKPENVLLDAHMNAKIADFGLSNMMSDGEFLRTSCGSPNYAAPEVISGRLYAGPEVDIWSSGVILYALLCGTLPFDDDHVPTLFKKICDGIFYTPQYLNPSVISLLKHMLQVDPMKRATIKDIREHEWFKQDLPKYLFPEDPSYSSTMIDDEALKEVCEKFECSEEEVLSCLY

Molecule	induced AMPK kinase activity
wild-type LKB1: Flag-tagged wild-type LKB1 serine/threonine kinase immunoprecipitated from HT1080 cells (protein, left off: small tags and cut ends, Flag-tagged wild-type LKB1 serine/threonine kinase immunoprecipitated from HT1080 cells) MEVVDPQQLGMFTEGELMSVGMDTFIHRIDSTEVIYQPRRKRAKLIGKYLMGDLLGEGSYGKVKEVLDSETLCRRAVKILKKKKLRRIPNGEANVKKEIQLLRRLRHKNVIQLVDVLYNEEKQKMYMVMEYCVCGMQEMLDSVPEKRFPVCQAHGYFCQLIDGLEYLHSQGIVHKDIKPGNLLLTTGGTLKISDLGVAEALHPFAADDTCRTSQGSPAFQPPEIANGLDTFSGFKVDIWSAGVTLYNITTGLYPFEGDNIYKLFENIGKGSYAIPGDCGPPLSDLLKGMLEYEPAKRFSIRQIRQHSWFRKKHPPAEAPVPIPPSPDTKDRWRSMTVVPYLEDLHGADEDEDLFDIEDDIIYTQDFTVPGQVPEEEASHNGQRRGLPKAVCMNGTEAAQLSTKSRAEGRAPNPARKACSASSKIRRLSACKQQ	27 fold
STRAD-activated LKB1: wild-type LKB1 co-expressed with its coactivating protein STRAD, immunoprecipitated (protein, left off: small tags and cut ends) chain 1: MEVVDPQQLGMFTEGELMSVGMDTFIHRIDSTEVIYQPRRKRAKLIGKYLMGDLLGEGSYGKVKEVLDSETLCRRAVKILKKKKLRRIPNGEANVKKEIQLLRRLRHKNVIQLVDVLYNEEKQKMYMVMEYCVCGMQEMLDSVPEKRFPVCQAHGYFCQLIDGLEYLHSQGIVHKDIKPGNLLLTTGGTLKISDLGVAEALHPFAADDTCRTSQGSPAFQPPEIANGLDTFSGFKVDIWSAGVTLYNITTGLYPFEGDNIYKLFENIGKGSYAIPGDCGPPLSDLLKGMLEYEPAKRFSIRQIRQHSWFRKKHPPAEAPVPIPPSPDTKDRWRSMTVVPYLEDLHGADEDEDLFDIEDDIIYTQDFTVPGQVPEEEASHNGQRRGLPKAVCMNGTEAAQLSTKSRAEGRAPNPARKACSASSKIRRLSACKQQ chain 2: MSFLVSKPERIRRWVSEKFIVEGLRDLELFGEQPPGDTRRKTNDASSESIASFSKQEVMSSFLPEGGCYELLTVIGKGFEDLMTVNLARYKPTGEYVTVRRINLEACSNEMVTFLQGELHVSKLFNHPNIVPYRATFIADNELWVVTSFMAYGSAKDLICTHFMDGMNELAIAYILQGVLKALDYIHHMGYVHRSVKASHILISVDGKVYLSGLRSNLSMISHGQRQRVVHDFPKYSVKVLPWLSPEVLQQNLQGYDAKSDIYSVGITACELANGHVPFKDMPATQMLLEKLNGTVPCLLDTSTIPAEELTMSPSRSVANSGLSDSLTTSTPRPSNGDSPSHPYHRTFSPHFHHFVEQCLQRNPDARPSASTLLNHSFFKQIKRRASEALPELLRPVTPITNFEGSQSQDHSGIFGLVTNLEELEVDDWEF	50 fold
Kinase-inactive LKB1: kinase-dead LKB1 mutant, alone or coexpressed with STRAD (protein, left off: small tags and cut ends, kinase-dead LKB1 mutant, alone or coexpressed with STRAD) MEVVDPQQLGMFTEGELMSVGMDTFIHRIDSTEVIYQPRRKRAKLIGKYLMGDLLGEGSYGKVKEVLDSETLCRRAVIILKKKKLRRIPNGEANVKKEIQLLRRLRHKNVIQLVDVLYNEEKQKMYMVMEYCVCGMQEMLDSVPEKRFPVCQAHGYFCQLIDGLEYLHSQGIVHKDIKPGNLLLTTGGTLKISDLGVAEALHPFAADDTCRTSQGSPAFQPPEIANGLDTFSGFKVDIWSAGVTLYNITTGLYPFEGDNIYKLFENIGKGSYAIPGDCGPPLSDLLKGMLEYEPAKRFSIRQIRQHSWFRKKHPPAEAPVPIPPSPDTKDRWRSMTVVPYLEDLHGADEDEDLFDIEDDIIYTQDFTVPGQVPEEEASHNGQRRGLPKAVCMNGTEAAQLSTKSRAEGRAPNPARKACSASSKIRRLSACKQQ	unable to activate AMPK
